Assay results: patent publication US5795761A, “Mutants of 2,5-diketo-D-gluconic acid (2,5-DKG) reductase A” (Rutgers, The State University of New Jersey, priority 1996, dated 1998)

Legend:
Type in all cases: biochemical, Corynebacterium sp. (ATCC 31090)
[1] = substrate: O=C(O)C(=O)[C@@H](O)[C@H](O)C(=O)CO; assay: Substrate kinetics of 2,5-DKG reduction (NADPH oxidation followed at 340 nm); settings: other: 50 mM tris pH 7.0, 0.2 mM NADPH, 2 to 14 mM substrate, 25° C.
Description: (§1) The preparations of wild-type and mutant Q192R 2,5-DKG reductase A enzymes were characterized kinetically as to their ability to reduce the substrate 2,5-DKG to 2-KLG. Assays were done in 1 ml total volume of 50 mM tris, pH 7.0, containing 0.2 mM NADPH, a constant amount of enzyme (15-20 μg) and amounts of substrate varying from 2 to 14 mM. The assays were done at 25° C., and the rate of substrate reduction was measured spectrophotometrically by measuring the loss of absorbance at 340 nm wavelength (which is indicative of the oxidation of the cofactor NADPH to NADP+).
The data were analyzed according to the well-known Michaelis equation to determine the kinetic parameters Vmax and Km using the Enzfit software package (Biosoft, Cambridge, UK) on a Epson desktop computer.

[2] = substrate: NC(=O)C1=CN([C@@H]2O[C@H](COP(=O)(O)OP(=O)(O)OC[C@H]3O[C@@H](n4cnc5c(N)ncnc54)[C@H](OP(=O)(O)O)[C@@H]3O)[C@@H](O)[C@H]2O)C=CC1; assay: Cofactor kinetics, constant 2,5-DKG and varying NADPH; settings: other: 50 mM bis-Tris pH 6.8, 10 mM 2,5-DKG, 2.5 to 200 μM NADPH
Description: The cofactor affinity of DKG reductase A F22Y, Q192R, A272G, and F22Y/A272G was determined by analysis of a series of reactions with constant substrate concentration and varying concentrations of NADPH.
Each series of reactions consisted of 50 mM bis-Tris pH 6.8, 10 mM 2,5-DKG, from 2.5 to 200 μM NADPH, and enzyme in a total volume of 1.0 ml.
Initial rate data for the reactions were fitted to the Michaelis-Menten equation by non-linear regression analysis as previously described to determine KM,NADPH.

[3] = substrate: O=C(O)C(=O)[C@@H](O)[C@H](O)C(=O)CO; assay: Substrate kinetics of 2,5-DKG reduction, 200 μM NADPH, substrate 0 to 30 mM; settings: other: 200 μM NADPH, 0 to 30 mM 2,5-DKG; pH 7.0; 25.0 °C
Description: as §1
A crude kinetic characterization of 2,5-DKG Reductase A mutants D278A, V277A, E276A, D275A, P274A, H273A, A272G, S271A, V270A, R269A, S267A, and D265A was carried out. […] 2-5-DKG Reductase A mutant A272G was characterized in essentially the same manner as in Example 5 except that in order to determine kinetic parameters for the NADPH-dependent reduction of 2,5-DKG by 2,5-DKG reductases, a series of reactions were done with constant saturating concentration of NADPH (200 μM) and varying concentrations of substrate from 0 to 30 mM.

| Protein | Km [1] [mM] | Vmax [1] | kcat/Km [1] [M⁻¹ s⁻¹] | Km [2] [µM] | Km [3] [mM] | kcat [3] [s⁻¹] |
| --- | --- | --- | --- | --- | --- | --- |
| Corynebacterium sp. 2,5-DKG reductase A, wild type (Corynebacterium sp. ATCC 31090) (protein, made in house; host or cells: Acetobacter cerinus (ATCC No. 39140)) MTVPSIVLNDGNSIPQLGYGVFKVPPADTQRAVEEALEVGYRHIDTAAIYGNEEGVGAAIAASGIARDDLFITTKLWNDRHDGDEPAAAIAESLAKLALDQVDLYLVHWPTPAADNYVHAWEKMIELRAAGLTRSIGVSNHLVPHLERIVAATGVVPAVNQIELHPAYQQREITDWAAAHDVKIESWGPLGQGKYDLFGAEPVTAAAAAHGKTPAQAVLRWHLQKGFVVFPKSVRRERLEENLDVFDFDLTDTEIAAIDAMDPGDGSGRVSAHPDEVD | 28 | 7.8 μmoles per minute per milligram of protein | 140 |  |  |  |
| Corynebacterium sp. 2,5-DKG reductase A mutant F22Y/A272G (Corynebacterium sp. ATCC 31090; A272G/F22Y) (protein, made in house) MTVPSIVLNDGNSIPQLGYGVYKVPPADTQRAVEEALEVGYRHIDTAAIYGNEEGVGAAIAASGIARDDLFITTKLWNDRHDGDEPAAAIAESLAKLALDQVDLYLVHWPTPAADNYVHAWEKMIELRAAGLTRSIGVSNHLVPHLERIVAATGVVPAVNQIELHPAYQQREITDWAAAHDVKIESWGPLGQGKYDLFGAEPVTAAAAAHGKTPAQAVLRWHLQKGFVVFPKSVRRERLEENLDVFDFDLTDTEIAAIDAMDPGDGSGRVSGHPDEVD |  |  |  | 8.19 |  |  |
| Corynebacterium sp. 2,5-DKG reductase A mutant A272G (Corynebacterium sp. ATCC 31090; A272G) (protein, made in house) MTVPSIVLNDGNSIPQLGYGVFKVPPADTQRAVEEALEVGYRHIDTAAIYGNEEGVGAAIAASGIARDDLFITTKLWNDRHDGDEPAAAIAESLAKLALDQVDLYLVHWPTPAADNYVHAWEKMIELRAAGLTRSIGVSNHLVPHLERIVAATGVVPAVNQIELHPAYQQREITDWAAAHDVKIESWGPLGQGKYDLFGAEPVTAAAAAHGKTPAQAVLRWHLQKGFVVFPKSVRRERLEENLDVFDFDLTDTEIAAIDAMDPGDGSGRVSGHPDEVD |  |  |  | 4.92 | 42.61 ± 12.13 | 21.44 ± 4.10 |
| Corynebacterium sp. 2,5-DKG reductase A mutant Q192R (Corynebacterium sp. ATCC 31090; Q192R) (protein, made in house; host or cells: Acetobacter cerinus) MTVPSIVLNDGNSIPQLGYGVFKVPPADTQRAVEEALEVGYRHIDTAAIYGNEEGVGAAIAASGIARDDLFITTKLWNDRHDGDEPAAAIAESLAKLALDQVDLYLVHWPTPAADNYVHAWEKMIELRAAGLTRSIGVSNHLVPHLERIVAATGVVPAVNQIELHPAYQQREITDWAAAHDVKIESWGPLGRGKYDLFGAEPVTAAAAAHGKTPAQAVLRWHLQKGFVVFPKSVRRERLEENLDVFDFDLTDTEIAAIDAMDPGDGSGRVSAHPDEVD | 21 | 14.0 μmoles per minute per milligram of protein | 335 |  |  |  |
